Laboratory results: US20210300992A1 (Stanford University, published 2021)
Where a chain is given by its changes, count along the chain named. In names and notes the source's numbering stands. Each block holds one binder with its values, some of them ahead of it.

Assays:
[1] = biological target: T1, wild-type human gp130 CBM domain displayed on the surface of yeast (human, UniProt P40189 124-324); assay: yeast-displayed receptor, no LIF added, anti-Fc detection by flow cytometry
T1 construct: also called gp130 wild-type (WT); wild-type gp130
T1 chain: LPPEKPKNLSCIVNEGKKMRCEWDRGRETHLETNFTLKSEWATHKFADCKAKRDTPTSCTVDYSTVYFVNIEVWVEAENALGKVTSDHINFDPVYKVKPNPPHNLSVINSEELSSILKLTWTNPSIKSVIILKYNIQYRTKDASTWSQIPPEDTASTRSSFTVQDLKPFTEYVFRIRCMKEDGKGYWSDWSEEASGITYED

[2] = biological target: T2, wild-type human LIFR displayed on the surface of yeast (human, UniProt P42702 45-534, limits assumed); assay: as above
T2 construct: also called LIFR wild-type (WT); wild-type LIFR
T2 sequence: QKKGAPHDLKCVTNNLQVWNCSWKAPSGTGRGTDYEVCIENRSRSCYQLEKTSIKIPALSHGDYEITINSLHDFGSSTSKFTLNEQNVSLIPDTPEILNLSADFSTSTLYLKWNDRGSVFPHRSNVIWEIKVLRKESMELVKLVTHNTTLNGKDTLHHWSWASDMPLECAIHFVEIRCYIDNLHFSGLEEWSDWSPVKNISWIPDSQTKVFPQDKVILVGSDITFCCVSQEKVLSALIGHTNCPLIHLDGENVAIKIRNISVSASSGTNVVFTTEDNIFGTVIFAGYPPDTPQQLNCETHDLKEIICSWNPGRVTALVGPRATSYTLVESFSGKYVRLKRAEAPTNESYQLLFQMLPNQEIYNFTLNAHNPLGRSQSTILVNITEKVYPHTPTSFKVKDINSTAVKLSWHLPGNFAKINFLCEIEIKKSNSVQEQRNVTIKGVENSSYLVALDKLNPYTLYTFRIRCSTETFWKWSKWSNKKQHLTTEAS

[3] = biological target: T3, human LIF-His (human, UniProt P15018 23-202); assay: competition on yeast: displayed wild-type LIFR or gp130 saturated with LIF-His, inhibitor added in excess; anti-His signal normalized to LIF alone
T3 construct: also called soluble LIF-His; not shown: His6 tag
Protocol: FIG. 14 LIF inhibitors compete LIF away from wild-type receptors. Panel A: Schematic illustration of competitive binding assay. […] Human LIF-His is incubated at saturating concentrations. Inhibitors (LIFR-[…]-Fc depicted) are then co-incubated with LIF-bound yeast, in excess. LIF binding is detected via His6-tag on LIF. The less LIF that remains bound after inhibitor incubation, the better the inhibitor is able to compete LIF away from the WT receptor. Panel B: Results from competitive binding experiment. […] Fraction bound is the fluorescent emission detected from the LIF-His, normalized to No Inhibitor added. Competitive binding of LIFR-WT-Fc, gp130-ELDME-Fc (Eng.), LIFR-[…]-Fc (Eng.), LIFR-gp130 Fusion-Fc (Eng.), LIFR-gp130 Heterodimeric Fc (Eng.), Anti-LIF mAb L1, and Anti-LIF mAb G1 are shown.
Human LIF-His is introduced at saturating concentrations. Inhibitors (LIFR-[…]-Fc depicted) are then co-incubated with LIF-bound yeast, in excess. LIF binding is detected via His6-tag on LIF. The less LIF that remains bound after inhibitor incubation, the better the inhibitor is able to compete LIF away from the WT receptor.

[4] = biological target: T4, human leukemia inhibitory factor (LIF), soluble (human, UniProt P15018 23-202); assay: yeast surface display titration with human LIF, flow cytometry
T4 construct: also called human LIF; soluble human LIF
Protocol: (§1) Binding to human LIF was measured via fluorescent antibody detection using flow cytometry.

[5] = biological target: T4, human leukemia inhibitory factor (LIF), …; assay: yeast surface display titration with human LIF, flow cytometry; reference yeast-displayed LIFR WT
Protocol: as §1
Results for LIFR wild-type (WT) (circles), the “PDD” variant (L218P-N42D-N277D) (squares), and the […] variant (mutations in FIG. 4, panel A) (triangles) are shown.

[6] = biological target: T4, human leukemia inhibitory factor (LIF), …; assay: KinExA with soluble human LIF; KD calculated by the KinExA software
Protocol: (§2) Binding of the purified LIF inhibitors to soluble LIF was tested using KinExA. Shown in FIG. 10 are binding results for: (1) a homodimer having a WT LIFR CBMI-Ig-like-CBMII Fc fusion as each monomer; (2) a homodimer having LIFR […] Fc as each monomer;

[7] = biological target: T4, human leukemia inhibitory factor (LIF), …; assay: KinExA, purified Fc fusion with soluble human LIF
[8] = biological target: T4, human leukemia inhibitory factor (LIF), …; assay: KinExA with soluble human LIF; inhibitor titrated
Protocol: as §2

[9] = biological target: T4, human leukemia inhibitory factor (LIF), …; assay: KinExA, purified Fc fusion with soluble human LIF; reference LIFR-WT-Fc
Protocol: as §2
(§3) and (3) a homodimer having LIFR-gp130 V-E fusion Fc as each monomer. KD values calculated from KinExA software and fitted curves are shown.

[10] = biological target: T4, human leukemia inhibitory factor (LIF), …; assay: cell-based or functional assay
[11] = biological target: T4, human leukemia inhibitory factor (LIF), …; assay: yeast surface display titration with human LIF, flow cytometry; reference yeast-displayed gp130 WT
Protocol: as §1
Results for gp130 wild-type (WT) (circles), the “8M” variant (E4K-K5R-N14D-K45E-F46L-K83R-Y95D-N100S) (squares), and the ELDME variant (mutations in FIG. 4, panel A) (triangles) are shown.

[12] = biological target: T4, human leukemia inhibitory factor (LIF), …; assay: KinExA with soluble human LIF; KD calculated by the KinExA software. The unit is written as printed; the curve lies beside that of LIFR VPRVVAID Fc (Kd in pM)
Protocol: as §2, §3

B1: gp130 CBM domain (ELDME) Fc fusion homodimer (Fc fusion)
chain: LPPEKPKNLSCIVNEGKKMRCEWDRGRETHLETNFTLKSEWATHELADCKAKRDTPTSCTVDYSTVYFVNIEVWVEAENALGKVTSDHINFDPVDKVKPNPPHNLSVINSEELSSILKLTWTNPSIKSVMILKYNIQYRTKDASTWSQIPPEDTASTRSSFTVQDLKPFTEYVFRIRCMKEDGEGYWSDWSEEASGITYEDGSGSGSDKTHTCPPCPAPELLGGPSVFLFPPKPKDTLMISRTPEVTCVVVDVSHEDPQVKFNWYVDGVQVHNAKTKPREQQYNSTYRVVSVLTVLHQNWLDGKEYKCKVSNKALPAPIEKTISKAKGQPREPQVYTLPPSREEMTKNQVSLTCLVKGFYPSDIAVEWESNGQPENNYKTTPPVLDSDGSFFLYSKLTVDKSRWQQGNVFSCSVMHEALHNHYTQKSLSLSPGK
notes: also called gp130-ELDME-Fc; gp130 ELDME Fc
binding result [1]: no binding
binding result [2]: no binding
binding result [3]: binds

B2: LIFR VPRVVAID variant displayed on the surface of yeast (receptor)
chain: T2 sequence with I217V, L218P, H240R, I257V, I260V, V262A, T273I, N277D
notes: also called I217V-L218P-H240R-I257V-I206V-V262A-T2711-N277D
Kd [4]: 0.03 nM
fold higher affinity compared to wild-type (WT) [5]: 32 fold

B3: LIFR CBMI-Ig-like-CBMII (VPRVVAID) Fc fusion homodimer (Fc fusion)
chain: QKKGAPHDLKCVTNNLQVWNCSWKAPSGTGRGTDYEVCIENRSRSCYQLEKTSIKIPALSHGDYEITINSLHDFGSSTSKFTLNEQNVSLIPDTPEILNLSADFSTSTLYLKWNDRGSVFPHRSNVIWEIKVLRKESMELVKLVTHNTTLNGKDTLHHWSWASDMPLECAIHFVEIRCYIDNLHFSGLEEWSDWSPVKNISWIPDSQTKVFPQDKVVPVGSDITFCCVSQEKVLSALIGRTDCPLIHLDGENVAIKVRNVSASASSGTNVVFITEDDIFGTVIFAGYPPDTPQGSQLNCETHDLKEIICSWNPGRVTALVGPRATSYTLVESFSGKYVRLKRAEAPTNESYQLLFQMLPNQEIYNFTLNAHNPLGRSQSTILVNITEKVYPHTPTSFKVKDINSTAVKLSWHLPGNFAKINFLCEIEIKKSNSVQEQRNVTIKGVENSSYLVALDKLNPYTLYTFRIRCSTETFWKWSKWSNKKQHLTTEASGSGSGSDKTHTCPPCPAPELLGGPSVFLFPPKPKDTLMISRTPEVTCVVVDVSHEDPQVKFNWYVDGVQVHNAKTKPREQQYNSTYRVVSVLTVLHQNWLDGKEYKCKVSNKALPAPIEKTISKAKGQPREPQVYTLPPSREEMTKNQVSLTCLVKGFYPSDIAVEWESNGQPENNYKTTPPVLDSDGSFFLYSKLTVDKSRWQQGNVFSCSVMHEALHNHYTQKSLSLSPGK
binding result [1]: no binding
binding result [2]: no binding
Kd [6]: 0.0231 nM
Kd [7]: 0.023 nM
EC50 (read off the curve) [8]: ~0.05 nM
fold improvement in affinity over LIFR-WT-Fc [9]: 43 fold
IC50, inhibition of LIF derived luciferase activity in HeLa STAT3 luciferase reporter cells [10]: 0.035 nM
fold improvement in IC50 over LIFR WT Fc, inhibition of LIF derived luciferase activity in HeLa reporter cells [10]: 53 fold

Now from value to binder:

Kd [4]: 5 nM
fold higher affinity compared to wild-type (WT) [11]: 12 fold
B4: gp130 ELDME variant displayed on the surface of yeast (receptor)
chain: T1 chain with K45E, F46L, Y95D, I130M, K184E
notes: also called K45E-F46L-Y95D-I130M-K184E

binding result [1]: no binding
binding result [2]: no binding
Kd [12]: 30.8 nM
EC50 (read off the curve) [8]: ~0.06 nM
B5: LIFR CBMI-Ig-like-CBMII (VPRVVAID)-gp130 CBM (ELDME) Fc fusion homodimer (Fc fusion)
chain: QKKGAPHDLKCVTNNLQVWNCSWKAPSGTGRGTDYEVCIENRSRSCYQLEKTSIKIPALSHGDYEITINSLHDFGSSTSKFTLNEQNVSLIPDTPEILNLSADFSTSTLYLKWNDRGSVFPHRSNVIWEIKVLRKESMELVKLVTHNTTLNGKDTLHHWSWASDMPLECAIHFVEIRCYIDNLHFSGLEEWSDWSPVKNISWIPDSQTKVFPQDKVVPVGSDITFCCVSQEKVLSALIGRTNCPLIHLDGENVAIKVRNVSASASSGTNVVFITEDDIFGTVIFAGYPPDTPQQLNCETHDLKEIICSWNPGRVTALVGPRATSYTLVESFSGKYVRLKRAEAPTNESYQLLFQMLPNQEIYNFTLNAHNPLGRSQSTILVNITEKVYPHTPTSFKVKDINSTAVKLSWHLPGNFAKINFLCEIEIKKSNSVQEQRNVTIKGVENSSYLVALDKLNPYTLYTFRIRCSTETFWKWSKWSNKKQHLTTEASGGGGSGGGGSGGGGSGGGGSGGGGSLPPEKPKNLSCIVNEGKKMRCEWDRGRETHLETNFTLKSEWATHELADCKAKRDTPTSCTVDYSTVYFVNIEVWVEAENALGKVTSDHINFDPVDKVKPNPPHNLSVINSEELSSILKLTWTNPSIKSVMILKYNIQYRTKDASTWSQIPPEDTASTRSSFTVQDLKPFTEYVFRIRCMKEDGEGYWSDWSEEASGITYEDGSGSGSDKTHTCPPCPAPELLGGPSVFLFPPKPKDTLMISRTPEVTCVVVDVSHEDPQVKFNWYVDGVQVHNAKTKPREQQYNSTYRVVSVLTVLHQNWLDGKEYKCKVSNKALPAPIEKTISKAKGQPREPQVYTLPPSREEMTKNQVSLTCLVKGFYPSDIAVEWESNGQPENNYKTTPPVLDSDGSFFLYSKLTVDKSRWQQGNVFSCSVMHEALHNHYTQKSLSLSPGK
notes: also called LIFR-gp130 Fusion-Fc; LIFR-gp130 V-E fusion Fc
